2 substances from article PMC4275180 can be followed below.

For assay [1], the target named is Stat1 (UniProt P42224). The assay is described as follows: GST pull-down after in vitro kinase reaction. The conditions noted are these: reference: His-KDM3A(1-394) not phosphorylated by MSK1; sites S264.
Assay [2] deals with Stat1 (UniProt P42224). As to the kind of experiment: FLAG co-IP, western blot. The settings on record: reference: wild type FLAG-KDM3A; sites S264.

For the substance “KDM3A 1-394 (from UniProt Q9Y4C1) His-KDM3A(1-394) phosphorylated by recombinant MSK1”, the “binding against the reference” value in assay [1] is listed as “gained”. For KDM3A (from UniProt Q9Y4C1) S264A, the “binding against the reference” value in assay [2] is given as “lost”.
